Data on 14 sequences can be found in a protein production outcome set (Wang et al. 2014).
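Note: failed if final PepcDB status was selected cloned or expressed and not failed if soluble or beyond.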

The data set can be described thus: label from the status in PepcDB records.
As to “MSIREVIMDYLENSSKKALSVEELSVALHMNKAKDYKVFVKTLASLEAEHLLNFTAKGKVELAEKEEAKVVISGIFRANAAGFGFVSIDAEEPDVFVARGQTAFALDGDEVFIEIDKNANALKGTSAEGHVVEIIRHDVHQVVGTFVALNDDEKEQTGLIGFVKSRNKKIPYRVYLENEGLIPENKAIVRVEITHYPDKEFPQTMQGLVTEIIGQADDQGIDVLEVLASMDIVSEFPKEVLDQAEAVPEEVPENEIVGRVDYRNEITFTIDGADAKDLDDAVHAKRLENGNYELGVHIADVSHYVTENSPLDKEAYERGTSVYVTDRVVPMLPERLSNGICSLNPRINRLTQSCVMEISPEGRVINYQISQSIIKTTERMTYDAVNQMIAGDEAALENYAKIADSVKIMVELHHILEAMRKRRGAIDFDTVEAKIIVNEKGLPIEIRKRTRGIAERMIESFMLEANETVATHFEAHGLPFIYRIHEQPKADRLQRFIDFAATFGMQIEGTSNGIDQKVLQAFMKKIKGQPGEMVLSTMLLRSMQQARYSENNEGHFGLAAENYTHFTSPIRRYPDLLVHRLIREIGEGKTPANILQKWEDKIPEIAEHSSHRERRAVDAEREVEKMKKAEFMEEHVGEEYEGIIASVTRFGMFIELENTIEGLVHISTLKGDYFNYQERMLALIGERSGLTFKIGQPIKIKVVKADRMTGEIDFEYLPSELDLIDKAAKAKKKPDHKGRKKSNQSLKVKSVAPKSTDKSANKSKNGRRADEKFEFDKKKKKSAKKPFYSKAAKGKFTDKKDNGKKFTDGRKKPHKRG”, the protein production result is given as “failed”.
As for “MSIRLKTALLSGILLAILVSGLGGVLWTVVRPGFQDIERARAADHMTALLAAISADIDSIGTFILSYSSWDETYAFVRTGDPTYVANNLAVEGAKNAQSHFALVLTPKGRTVFSRLWNDDFTATLPPPDAAGGGLPANHPLMAALSHPEGVRGLLQTPRGPLAVAARPILPSNEHGPPRGVLVFGRWLTHALSDHPPLPHLSPLRLWLAPAPGDAPENVRRLLAADGPDLEIDGIGEPTSLVTAGIRLVDLEGAPVAALTTTLAKTVEPQGESIIRLALVIAALGSLGVVAVGLVSNHLMIVAPLRRLESHITTLSRTGDLDTRLVLDRKDEIGLLARAFATMQGRIRHLAHYDPLTGLPNRTLFTMLGEGALARRRADRNGGGRRVGVAILDLDRLNTLTIGLGQGGSERALVAVGRRLAALAGPADVVARGGDGRFLVLLGDLAPAQAGSIVEREAAERLASAFAKPFTPDDLVGAPLSLTASIGLALFPQDGETLETLVTHAEVAVHQAKLLGRNNFQFFDDTLNRQAREILALESALYEALADNTLSLCFQPRIDAVRGHAIELKALARWDHPSRDLIVLEDVLPLIKQDGLLAEIDRWMSNAACRQIRQWRDQGVSFPPIAIALSARPLTAGDPGLAPIAEAIAANGVDPGDLAVEIAQSAIKGQFPETKAPETQAPEDRPAEELPWPDGLAGLGLGLVIDVADAGVVSPALLRRFPLTRLTIGAALVAKLPDCRESRALVRALIALADELDLECLAEGVERGDQADWLLAAGCRLQQGLFHARPQDQTVILRWLGQTPPRGLSSPGPRDRKQDGV”, the entry is “failed”; as for “MSITERFFYLEKEPCVIYLPEKPNGFSVMLLGDYNYFIENGTSLWTQHTGRSYFLHGLIEEGYTVFSSNLYGRHWGNDQSVRLAKRLYDVVLRKETLNAKMHIMADGMGALVALEMMNKYPECIRSVIMLNPCLDLPEYVEFEKEHKFFYKRLLKELSLAYDAKEEELEA”, “failed”; as for “MSITRRDILKGAAATGAIAATSVLSGCQKTGATNSMADLAHKIKRPNLLIIFPDEMRAQALGFMGEDPSLTPNLNRFAKDSAVLKQAVSNFPLCTPFRGMLMTGQYPYRNGIQGNSHTATPGMFGGKDFGIELKKNQSTWSDILSQQGYSMGYIGKWHLDAPEAPFVPSYNNPMEGRYWNDWTTPDRRHGFDFWYSYGTYDKHLTPMYWTNDTPRDQPLHINQWSPEHEADIAIKYLRNENGNYRNNDKPFTLVVSMNPPHSPYDQVPQKYLDRFKESSRTLNSRPNVQWDKEYLEGYGPEYFKEYMAMVNGVDEQFGRIVDELDALNLAKDTLVVFFSDHGCCMGSNGNPTKNVHYEEAMRIPMMFRWPGKIAPKSDDLLFSAPDIYPTLFGLMGMDDLIPDTVEGTDFSKTVKSESGDIKPTSQFYTFMPYGGQSYGRRGIRNKQYTLMIDRKIGKPLTYVLHDNQVDPYQMKNIAEQQPELISQLIQNELMPWLEHTGDPWRPTEVPKNTANAYT”, “failed”.
With “MSIWWLNNTVRVAREKEAVENLATETEWFVLDRWEIHDYKFAAIGSIVAHGATYPIRLVYPDNFPLVPAWVEPQDPEAKWSYHQYGKGGALCLELRPDNWTSRANGADVLRSAYGLLNLENPLGDGEKGKVTSAHNVGEIQKYNWGESPVFIGQECLTRLLSGDIQDVNALRWSASDKVWPIFLSDAVDRQGVQRPPSADLNTWRLHVPVALVSGKVPDGLPSERSTFISTLWESSPVEGEVNFVTVFIEDDGINVFHVLSDNAYHRKVYVLPPETGLRSGRAPSAQAKKVAVVGAGSVGSKVAEMLLRSGIDTLRIFDGDVFLPGNLERHVLDWRDVGYHKVHGLKRRLLHIVPGADIMTIDQNLNWQKSARTNALHFDLITACDIIVDASGDPATSMLLGALAFENKKPFVSVEVFEGGIGALVAPSVPERNAAYTLGREALLNWTDEKGRVVPLSAGDRAYEAISDDGDIIVADDAAISMAASHAARVVLDILDDKLDDFRWLLIGFRKEWAFDMHGHVIALDVGGPSEWNNNTEDADAQKFVIEIAGELLDVLKAFTQ”, the protein production entry was “failed”.
The result for “MSIYMIGLIRHSETKVFNKALIQGSLIAYIVFMLFAWGGEAIFSKYLNVRFEAFQIFGGLIFLVIGYRYVFQGADTIGEMRGAPEHLAGTIAMPFMIGPGTISAAVVTGIEMSIGAAALVIGFTMFLTCSILILMKFSHDHLRYKHAKYIDRYFDIVGRLSALLIGTIAVDMIINGVTGLIHKV” reads “failed”.
The result for “MSKAIVLDSHLKEKGSVELPKRYESINSHNLYLYVKHYLSSARANTAKSKNRAEVSGGGRKPWAQKGGGRARAGSITSPVFVGGGVSHGATNNRNYNLKINKKQKRLALEYALEEKAQANKLFVVEKIAIKGVVEDNKRKHLTKEANQMFQALEQRDTLFVCMNMDEYTELAFSNLKKCLIVDVSELNAYLLAAFSSVVMEEAAFQHVVQDKTEE” reads “failed”; that for “MSKDVKPTRKNLMAIEDRIELSERGHDTLEKKRDGLIMEFMDILDQAQDVRSDLDENYERAQRNINMARAMEGDVAVRGAAAALKEHPEITTQSKNIMGVVVPQIESTKVKKSLDQRGYGLVGTSARIDEAADAYEELLETIILAAEVETAMKKMLDEIEKTKRRVNALEFKLLPELHEAQEYIEQKLEEQEREEIFRMKKIKAKKEEEEEENPVADTESAAEAAVTEAGQ”, “failed”.
As for “MSKEIFDTFKFKCGAELKNRVLMAPMTIQAGYFDGSVTSEMIDYYQFRAGDASAIIVESCFVENHGRGFPGAIGIDNDDKIPGLKRLAEAIQAKGSKAILQLYHAGRMANPKFNEGEQPISASPIAALRPDAVPPREMTHAQINQMIDDFGEATRRAIEAGFDGVEIHGANTYLLQQFFSPHSNRRQDSWGGSREKRTRFPIEVLTKVQHVVAEKEASHFIIGYRFSPEEIEEPGIRFEDTMFLLNTLAEYEPDYFHISANSYQRTSIVNQEDTEPLINKYIKMQSAQLAKIPLIGVGSIAQRQDAEHALELGYDLLSVGKAYLVEPQWTDKISQNEEVEQFVDIHDQKVLHIPSPLWKVMDFMILDKEEEHRKYEKLKALQNKKVKFNKGTYHVYAKGHNGNLPMKVQLSEDKIVSIEVDDSGESEGIANPVFERLPQDIINGQTLNVDVISGATVTSEGIVQGIADAIEQAGEDPDILRARPKPVVQWSDEVVEETTDVVVIGTGGAGLSAAATVLDEGKEVIMLEKFAAIGGNTIRTGGQVNAAEPKWQNAFPALAGEKETLIQLLNHDENDIDEAYIEDFNTLKRQIKDYLENSSNEDEYLFDSVELHRIQTYLGGKRKDRNNVEISGDYDLVKTLTDNVLESVYWLKDKGVHFDRSFVDMPVGALWRRGHKPMKAQGLEYIENLGDYVKHNHGRIFTETTAEKLIKEGNQVVGIEARKANGAKVKIHTRHGVVLATGGFGANTKMLQQYNTYWDNIPDDIKTTNSPAITGDGIRLGVQAGADIVGMGFSQMMPISDPKTGALFTGLIVTPSNFVFVNKEGQRFVNEFESRDVLSKAALEQKDGIFYIIADANIKALAMNTTEDKINQELEDGTLVKADTLEALAQKLNIDTTTFVNTIERYNTFVEQGQDEDFNKNAFDLKIEKAPFYATPRKPAIHHTMGGLKINTHAQVIDVEGHIIEGLYAAGEVAGGIHAGNRLGGNALADIFTFGRIAGQSAVTK”, the entry is “failed”.
For “MSKFAMVFPGQGSQSLGMLADLAAQFPIVEATFSEASSVLGYDLWQLVQQGPAEELNKTWQTQPALLTASVAIWRIWQHQGGKLPSLMAGHSLGEYSALVCAGVLDFKQAVSLVELRGKLMQEAVPEGTGAMYAIIGLDNESIAKACEESAQGQVVSPVNFNSPGQVVIAGNKDAVERAGAACKAAGAKRALPLPVSVPSHCALMKPAADKLAVALEKIDFQEPLFPVVNNVDVKAEVSPVAIRSALVRQLYNPVRWTESVEFIAAEGVELLLEIGPGKVLTGLTKRIVDSLAAAAVNDVVTLNSALEH”, the protein production result is “failed”.
As for “MSKFTIHTIETAPERVKETLRTVKKDNGGYIPNLIGLLANAPTALETYRTVGEINRRNSLTPTEREVVQITAAVTNGCAFCVAGHTAFSIKQIQMAPDLLEALRNATPIDDDPKLDTLAKFTIAVINTKGRVGDEAFADFLEVGYTPENALDVVLGVSLASLCNYANNMADTPINPELQQYVK”, the entry is “not failed”; as for “MSKGTTSQDAPFGTLLGYAPGGVAIYSSDYSSLDPQEYEDDAVFRSYIDDEYMGHKWQCVEFARRFLFLNYGVVFTDVGMAWEIFSLRFLREVVNDNILPLQAFPNGSPRAPVAGALLIWDKGGEFKDTGHVAIITQLHGNKVRIAEQNVIHSPLPQGQQWTRELEMVVENGCYTLKDTFDDTTILGWMIQTEDTEYSLPQPEIAGELLKISGARLENKGQFDGKWLDEKDPLQNAYVQANGQVINQDPYHYYTITESAEQELIKATNELHLMYLHATDKVLKDDNLLALFDIPKILWPRLRLSWQRRRHHMITGRMDFCMDERGLKVYEYNADSASCHTEAGLILERWAEQGYKGNGFNPAEGLINELAGAWKHSRARPFVHIMQDKDIEENYHAQFMEQALHQAGFETRILRGLDELGWDAAGQLIDGEGRLVNCVWKTWAWETAFDQIREVSDREFAAVPIRTGHPQNEVRLIDVLLRPEVLVFEPLWTVIPGNKAILPILWSLFPHHRYLLDTDFTVNDELVKTGYAVKPIAGRCGSNIDLVSHHEEVLDKTSGKFAEQKNIYQQLWCLPKVDGKYIQVCTFTVGGNYGGTCLRGDESLVIKKESDIEPLIVVKK”, “failed”; as for “MSKIDWDSPEGAERYDRNCDHQFQKGHVLIEMMGIKKGDFVLDVGCGTGRQALNVAGIIGPAGKLTGIDPSSYRIELARKKFEGDSSGNVRFLVRQAENLQDIPDNSINHAYFCSSFHWVDDKKTALNEIFRVLRPGGKVGMTTLDRNSPNTMKALIDPILAKFGIERRHEWHRGMKKVTAPELHDLLSGAGFTSISIEPRAVPRKYNSPEEFLQHPEEKDSSRGILRDISNETLEKLRQEITEEFRKAQTPEDIGFGNITLFAIATKAQEGI”, “failed”.
As for “MSKKETDLGRDSIGKLLFKLAMPAIIAQLVNVLYNIVDRMFIGRLQSGDMAMAGVGVAFPIIMIVAAFSGLVGMGGAPLAAIKMGEKKKEDAEEIMTNSFSALIGLALFLTVFFFIFKEPILWAFGASDATIGYALDYLGIYLIGTIFVQIALGMNSFINTQGFAKVGMITVMVGAVINIVLDPILIFGFNMGVKGAALATIIGQCASAIWVLYFLFEKQSILRIRKKFLKPKLKILFSIMALGVSPFIMQATESLVIISMNNNLLKYGGDLAVGAMTIMSSVMQIILLPLMGLSQGAQPIISYNYGANKVYRVKKAFKLLLVSSMVFTTIMWSALMMLPDVFVKIFNSNNPQLMEITSWSIKIYFAGILLFGAQVACQQTFLALGQAKISLILALLRKIVLLIPFIYVLPMVFENKLMGVLMAEPFADIIAALSTVTCFIVFYKKHLSQGLEEEIKVNS”, the entry is “failed”.
